Measurements taken from patent US9675707B2, “Anti-TAT226 antibodies and immunoconjugates” (GENENTECH, INC., priority 2006, dated 2017).
Numbering of substitutions follows the chain as printed. Where a SMILES comes first, the peptide text is derived from it. [ ]: non-standard residue; d: D form. The star is where a group is joined. Dolaproine = CO[C@@H]([C@@H]1CCCN1)[C@@H](C)C(=O)O; Dil = CC[C@H](C)[C@H](NC)[C@@H](CC(=O)O)OC; X1 = C[C@@H](N*)[C@@H](O)c1ccccc1; NMeV = CN[C@H](C(=O)O)C(C)C

T1: TAT226-His (Homo sapiens, UniProt Q8N2G4)
T1 construct: polyhistidine (C); made in house
T1 sequence (Q8N2G4 21-115): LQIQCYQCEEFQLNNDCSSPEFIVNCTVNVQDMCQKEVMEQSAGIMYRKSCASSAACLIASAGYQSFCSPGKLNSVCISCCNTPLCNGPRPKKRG

T2: TAT226 expressed on the surface of OVCAR3 (Homo sapiens, UniProt Q8N2G4)
T2 construct: TAT226 expressed on the surface of OVCAR3, a human ovarian cancer cell line; endogenous in cells; host or cells: OVCAR3
T2 sequence (Q8N2G4 21-117): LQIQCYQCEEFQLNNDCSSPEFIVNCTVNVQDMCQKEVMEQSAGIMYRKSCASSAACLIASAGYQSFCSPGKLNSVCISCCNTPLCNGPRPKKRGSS

B1: YWO.49.B7: affinity matured anti-TAT226 antibody derived from YWO.49, reformatted as full-length IgG (antibody, V domains shown)
VH: EVQLVESGGGLVQPGGSLRLSCAASGFTITNYGIHWVRQAPGKGLEWVGRIYPDSGATYYADSVKGRFTISADTSKNTAYLQMNSLRAEDTAVYYCARKLWVSLAAMDYWGQGTLVTVSS
VL: DIQMTQSPSSLSASVGDRVTITCRASQDVSTAVAWYQQKPGKAPKLLIYSASFLYSGVPSRFSGSGSGTDFTLTISSLQPEDFATYYCQRSVFTPPAFGQGTKVEIKR
B2: YWO.49.C9: affinity matured anti-TAT226 antibody derived from YWO.49, reformatted as full-length IgG (antibody, V domains shown)
VH: B1 VH with S103T, A106S
VL: B1 VL with R90K, V92Y, F93N, A97T
B3: YWO.49.H6: affinity matured anti-TAT226 antibody derived from YWO.49, reformatted as full-length IgG (antibody, V domains shown)
VH: B1 VH with V102I, L104I, A106G
VL: B1 VL with R90H, V92Y, F93A, P96F, A97T
B4: YWO.49.H2: affinity matured anti-TAT226 antibody derived from YWO.49, reformatted as full-length IgG (antibody, V domains shown)
VH: B1 VH with A106P
VL: B1 VL with R90Q, V92Y, F93G, P96F, A97I

Key:
HCT116#9-4 cells = experiment: In vitro cell killing assay using HCT116 transfected cells (CellTiter-Glo); assay type: cell-based, human; details: 3 days of incubation
Procedure: (§1) YWO.49.H2 and YWO.49.H6 ADCs were tested for the ability to inhibit proliferation of HCT116 cells, a colon cancer cell line, which had been stably transfected with nucleic acid encoding human TAT226. Untransfected HCT116 cells are normally about 5-6 fold less sensitive to free (unconjugated) MMAE than OVCAR3 cells.
Briefly, HCT116 cells were transfected as follows. Nucleic acid encoding epitope-tagged human TAT226 was constructed in the mammalian expression vector pcDNA3.1 (Invitrogen, Carlsbad, Calif.). The epitope tag consisted of amino acids 1-53 of the herpes simplex virus type 1 glycoprotein D (the “gD” tag), which replaced the signal sequence from amino acids 1-22 at the N-terminus of human TAT226. The recombinant vector was transfected into HCT116 cells using Lipofectamine200 (Invitrogen) according to the manufacturer's protocol. Transfected HCT116 cells were cultured in McCoy's 5a medium with 10% FBS and 0.4 mg/ml G418. Cells were stained using anti-gD antibodies and sorted by FACS to select for individual clones expressing recombinant gD:human TAT226 fusion protein. […]
To perform the cell killing assay, HCT116#9-4 cells were seeded in 96-well plates. […] After 3 days of incubation, cell viability was measured using the CellTiter-Glo™ Luminescent Cell Viability Assay (Promega, Madison, Wis.) according to the manufacturer's instructions.

OVCAR3 cells = experiment: OVCAR3 in vitro cell killing assay (CellTiter-Glo); assay type: cell-based, human; details: 5 days of incubation
Procedure: YWO.49.H2 and YWO.49.H6 ADCs were tested for the ability to inhibit proliferation of OVCAR3 cells. OVCAR3 cells were seeded in 96-well plates in RPMI with 20% FBS. Anti-MUC16/CA25 antibody conjugated to MC-vc-PAB-MMAE was used as a positive control. MUC16/CA25 is a known ovarian cancer antigen. See, e.g., Yin et al. (2001) J. Biol. Chem. 276:27371-27375. Anti-IL-8 antibody conjugated to MC-vc-PAB-MMAE was used as a negative control. After 5 days of incubation, cell viability was measured using the CellTiter-Glo™ Luminescent Cell Viability Assay (Promega, Madison, Wis.) according to the manufacturer's instructions. The scale on the y-axis of FIG. 17 indicates the relative light units, or “RLUs,” from luciferase luminescence, which is a measure of cell viability.

[1] = system: Untransfected HCT116 cells; experiment: Sensitivity of untransfected HCT116 cells to free MMAE; assay type: cell-based, human; details: untransfected HCT116 cells versus OVCAR3 cells
Procedure: as §1

TAT226-His = molecular target: T1, TAT226-His; experiment: Binding affinity for recombinant antigen by surface plasmon resonance (BIACORE 3000); details: immobilized antibody, TAT226-His 0.7 nM to 500 nM, 25° C., one-to-one Langmuir model; for kon/10^5: association rate; for koff/10^−4: dissociation rate
Procedure: The binding affinity of YWO.49, YWO.49.B7, YWO.49.C9, YWO.49.H2, and YWO.49.H6 for recombinant antigen was determined by surface plasmon resonance measurement using a BIACORE® 3000 system (Biacore, Inc., Piscataway, N.J.). Briefly, carboxymethylated dextran biosensor chips (CMS, Biacore Inc.) were activated with N-ethyl-N′-(3-dimethylaminopropyl)-carbodiimide hydrochloride (EDC) and N-hydroxysuccinimide (NHS) according to the supplier's instructions. Anti-TAT226 antibody was diluted to 5 ug/ml with 10 mM sodium acetate, pH 4.8, before injection at a flow rate of 5 ul/minute to achieve approximately 500 response units (RU) of coupled antibody. Next, 1M ethanolamine was injected to block unreacted groups. For kinetics measurements, two-fold serial dilutions of TAT226-His (0.7 nM to 500 nM) were injected in PBS with 0.05% Tween 20 at 25° C. at a flow rate of 25 μl/min. Association rates (kon) and dissociation rates (koff) were calculated using a simple one-to-one Langmuir binding model (BIAevaluation Software version 3.2). The equilibrium dissociation constant (Kd) was calculated as the ratio koff/kon.

[2] = molecular target: T2, TAT226 expressed on the surface of OVCAR3; experiment: FACS binding to TAT226 expressed on the surface of OVCAR3 cells; details: 5 μg/ml primary antibody, 1 hour on ice
Procedure: The ability of anti-TAT226 antibodies to bind to TAT226 expressed on the surface of OVCAR3, a human ovarian cancer cell line, was examined. Fluorescence-activated cell sorting (FACS) was performed on OVCAR3 cells in the absence and in the presence of YWO.49, YWO.49.B7, YWO.49.C9, YWO.49.H2, or YWO.49.H6. Briefly, detached cells were incubated with 5 μg/ml primary antibody for 1 hour on ice, washed, and incubated with secondary antibody (anti-human IgG conjugated to phycoerythrin) for 30 minutes on ice. FACS was performed using a FACScan™ flow cytometer (BD Biosciences, San Jose, Calif.).
The peaks on the left side of each graph represent “background” binding, i.e., binding of secondary antibody only. The peaks on the right side of each graph represent binding of the indicated anti-TAT226 antibody.

Molecule | IC50 (HCT116#9-4 cells) [nM] | IC50 (OVCAR3 cells) [nM] | fold less sensitive than OVCAR3 cells [1] | kon/10^5 (TAT226-His) | koff/10^−4 (TAT226-His) | binding to OVCAR3 cells by FACS [2]
CC[C@H](C)[C@@H]([C@@H](CC(=O)N1CCC[C@H]1[C@H](OC)[C@@H](C)C(=O)N[C@H](C)[C@@H](O)c1ccccc1)OC)N(C)C(=O)[C@@H](NC(=O)[C@@H](NC)C(C)C)C(C)C [free MMAE, mono-methyl auristatin E] (H-[NMeV]V[Dil][Dolaproine]-X1) | ~0.9 | ~0.1 | 5-6 fold |  |  | 
B1 |  |  |  | 0.27 | <0.05 | did not bind significantly
B2 |  |  |  | 1.53 | <0.05 | comparable to that observed for YWO.49.H2 and YWO.H6
B3 |  |  |  | 1.86 | 0.09 | 
B4 |  |  |  | 0.22 |  | 
